According to the supplement of paper PMC9112550, “Optimization of the antimicrobial peptide Bac7 by deep mutational scanning” (BMC Biology, 2022):

Test system: Escherichia coli TOP10
Assay: shrunken log2 fold change of peptide-encoding DNA abundance (4.5 h post-induction vs induction); higher = less antimicrobial activity (less host growth inhibition)
Details: time post-induction: 4.5 h; library: site-saturation at positions 5, 18, 19, 20
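Also: peptides expressed intracellularly from a pBAD plasmid library in pooled LB shake-flask culture, induced with 0.3% L-arabinose, DNA abundance read by NGS, three biological replicates, DESeq2 with apeglm shrinkage.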

| Sequence | shrunken log2 fold change |
| --- | --- |
| RRIRSRPPRLPRPRPRPSSRPRP | -0.288 |
| RRIRIRPPRLPRPRPRPEIRPRP | -0.0172 |
| RRIRWRPPRLPRPRPRPNNTPRP | -0.587 |
| RRIRKRPPRLPRPRPRPIWTPRP | -0.00674 |
| RRIRIRPPRLPRPRPRPFAIPRP | -0.886 |
| RRIRMRPPRLPRPRPRPGGYPRP | 0.0413 |
| RRIRYRPPRLPRPRPRPTTQPRP | -0.597 |
| RRIRERPPRLPRPRPRPSLEPRP | -0.199 |
| RRIRGRPPRLPRPRPRPPPYPRP | 0.611 |
| RRIRHRPPRLPRPRPRPNTGPRP | 0.121 |
| RRIRPRPPRLPRPRPRPPGKPRP | 0.335 |
| RRIRTRPPRLPRPRPRPLQQPRP | -0.0185 |
| RRIRGRPPRLPRPRPRPAHLPRP | 0.768 |
| RRIRERPPRLPRPRPRPTSCPRP | -0.178 |
| RRIRERPPRLPRPRPRPVVWPRP | 0.33 |
| RRIRCRPPRLPRPRPRPQWGPRP | 0.502 |
| RRIRTRPPRLPRPRPRPNYDPRP | -0.493 |
| RRIRRRPPRLPRPRPRPSPDPRP | 0.608 |
| RRIRLRPPRLPRPRPRPQLHPRP | -0.123 |
| RRIRQRPPRLPRPRPRPWMDPRP | -0.118 |
| RRIRSRPPRLPRPRPRPDRLPRP | -0.168 |
| RRIRDRPPRLPRPRPRPKWEPRP | 0.104 |
| RRIRDRPPRLPRPRPRPTAYPRP | -0.22 |
| RRIRNRPPRLPRPRPRPSMRPRP | 0.000173 |
| RRIRQRPPRLPRPRPRPSPWPRP | 0.433 |

| Sequence | shrunken log2 fold change |
| --- | --- |
| RRIRWRPPRLPRPRPRPARNPRP | 0.256 |
| RRIRPRPPRLPRPRPRPRDNPRP | -0.104 |
| RRIRSRPPRLPRPRPRPWACPRP | 0.0189 |
| RRIRVRPPRLPRPRPRPCVYPRP | -0.136 |
| RRIRQRPPRLPRPRPRPTARPRP | 0.219 |
| RRIRERPPRLPRPRPRPEFWPRP | 0.159 |
| RRIRMRPPRLPRPRPRPVKHPRP | 0.0894 |
| RRIRPRPPRLPRPRPRPTPHPRP | 0.373 |
| RRIRRRPPRLPRPRPRPGHIPRP | -0.116 |
| RRIRARPPRLPRPRPRPRAPPRP | 1.01 |
| RRIRDRPPRLPRPRPRPLSQPRP | 0.483 |
| RRIRIRPPRLPRPRPRPVGVPRP | -0.157 |
| RRIRSRPPRLPRPRPRPFLEPRP | -0.248 |
| RRIRYRPPRLPRPRPRPGAWPRP | 0.0731 |
| RRIRGRPPRLPRPRPRPVGKPRP | 0.646 |
| RRIRKRPPRLPRPRPRPQLVPRP | 0.225 |
| RRIRFRPPRLPRPRPRPMLEPRP | 0.147 |
| RRIRCRPPRLPRPRPRPCGVPRP | 0.0257 |
| RRIRKRPPRLPRPRPRPWKYPRP | -0.067 |
| RRIRVRPPRLPRPRPRPDFNPRP | -0.344 |
| RRIRERPPRLPRPRPRPQWCPRP | -0.262 |
| RRIRQRPPRLPRPRPRPELLPRP | 0.534 |
| RRIRQRPPRLPRPRPRPWWSPRP | 0.0234 |
| RRIRMRPPRLPRPRPRPADWPRP | 0.905 |
| RRIRWRPPRLPRPRPRPTIYPRP | 0.113 |

| Sequence | shrunken log2 fold change |
| --- | --- |
| RRIRFRPPRLPRPRPRPRPSPRP | 0.433 |
| RRIRGRPPRLPRPRPRPWQVPRP | -0.00145 |
| RRIRLRPPRLPRPRPRPIGVPRP | -0.0539 |
| RRIRGRPPRLPRPRPRPAGSPRP | 1.06 |
| RRIRDRPPRLPRPRPRPQRWPRP | 0.287 |
| RRIRGRPPRLPRPRPRPCLPPRP | -0.0995 |
| RRIRWRPPRLPRPRPRPRMDPRP | 0.211 |
| RRIRSRPPRLPRPRPRPPLCPRP | 0.357 |
| RRIRVRPPRLPRPRPRPCIWPRP | 0.0495 |
| RRIRQRPPRLPRPRPRPNKNPRP | -0.335 |
| RRIRARPPRLPRPRPRPVDGPRP | 0.381 |
| RRIRFRPPRLPRPRPRPRIPPRP | -0.0955 |
| RRIRVRPPRLPRPRPRPNAMPRP | -0.234 |
| RRIRWRPPRLPRPRPRPMWFPRP | -0.487 |
| RRIRTRPPRLPRPRPRPIAQPRP | -0.0464 |
| RRIRFRPPRLPRPRPRPLCSPRP | -0.566 |
| RRIRKRPPRLPRPRPRPKYVPRP | 0.0381 |
| RRIRDRPPRLPRPRPRPGQAPRP | 0.0989 |
| RRIRGRPPRLPRPRPRPWIIPRP | -0.121 |
| RRIRMRPPRLPRPRPRPWMAPRP | -0.0347 |
| RRIRCRPPRLPRPRPRPSEFPRP | -0.287 |
| RRIRKRPPRLPRPRPRPYYVPRP | -0.197 |
| RRIRLRPPRLPRPRPRPPTNPRP | 0.177 |
| RRIRQRPPRLPRPRPRPKWYPRP | -0.118 |
| RRIRQRPPRLPRPRPRPFNAPRP | -0.233 |

| Sequence | shrunken log2 fold change |
| --- | --- |
| RRIRIRPPRLPRPRPRPYNNPRP | -0.462 |
| RRIRGRPPRLPRPRPRPCMHPRP | 0.363 |
| RRIRVRPPRLPRPRPRPDSNPRP | -0.159 |
| RRIRQRPPRLPRPRPRPSLNPRP | -0.216 |
| RRIRARPPRLPRPRPRPEAAPRP | 1.78 |
| RRIRNRPPRLPRPRPRPMHLPRP | -0.179 |
| RRIRVRPPRLPRPRPRPRECPRP | 0.175 |
| RRIRTRPPRLPRPRPRPLPWPRP | 0.147 |
| RRIRERPPRLPRPRPRPQTAPRP | -0.0922 |
| RRIRDRPPRLPRPRPRPREQPRP | 1.36 |
| RRIRKRPPRLPRPRPRPRSPPRP | 0.6 |
| RRIRGRPPRLPRPRPRPALRPRP | 0.991 |
| RRIRKRPPRLPRPRPRPAVNPRP | -0.0383 |
| RRIRYRPPRLPRPRPRPRAVPRP | 0.0585 |
| RRIRIRPPRLPRPRPRPWTKPRP | 0.0573 |
| RRIRKRPPRLPRPRPRPWPGPRP | 0.342 |
| RRIRLRPPRLPRPRPRPTVMPRP | 0.105 |
| RRIRNRPPRLPRPRPRPEQEPRP | 0.0175 |
| RRIRTRPPRLPRPRPRPHLGPRP | 0.0458 |
| RRIRVRPPRLPRPRPRPIADPRP | 0.0367 |
| RRIRFRPPRLPRPRPRPCFCPRP | -0.453 |
| RRIRRRPPRLPRPRPRPTAVPRP | 0.606 |
| RRIRERPPRLPRPRPRPWAEPRP | 0.0285 |
| RRIRQRPPRLPRPRPRPADQPRP | 0.012 |
| RRIRSRPPRLPRPRPRPMELPRP | -0.187 |

| Sequence | shrunken log2 fold change |
| --- | --- |
| RRIRCRPPRLPRPRPRPTNIPRP | -0.662 |
| RRIRARPPRLPRPRPRPRYVPRP | -0.25 |
| RRIRERPPRLPRPRPRPRTKPRP | 0.175 |
| RRIRWRPPRLPRPRPRPTICPRP | -0.106 |
| RRIRHRPPRLPRPRPRPPERPRP | 0.511 |
| RRIRGRPPRLPRPRPRPNDDPRP | 0.349 |
| RRIRVRPPRLPRPRPRPKQEPRP | 0.239 |
| RRIRHRPPRLPRPRPRPWEPPRP | -0.0767 |
| RRIRNRPPRLPRPRPRPTTGPRP | 0.0259 |
| RRIRIRPPRLPRPRPRPEFRPRP | 0.239 |
| RRIRPRPPRLPRPRPRPAWWPRP | 0.259 |
| RRIRRRPPRLPRPRPRPRRAPRP | 0.655 |
| RRIRMRPPRLPRPRPRPTGKPRP | 0.562 |
| RRIRPRPPRLPRPRPRPTLWPRP | 0.299 |
| RRIRERPPRLPRPRPRPWPEPRP | -0.0215 |
| RRIRLRPPRLPRPRPRPVSTPRP | 0.255 |
| RRIRLRPPRLPRPRPRPVMQPRP | 0.00383 |
| RRIRVRPPRLPRPRPRPLKTPRP | -0.0304 |
| RRIRIRPPRLPRPRPRPVPAPRP | 0.0984 |
| RRIRIRPPRLPRPRPRPEGQPRP | -0.0492 |
| RRIRVRPPRLPRPRPRPYKSPRP | -0.492 |
| RRIRRRPPRLPRPRPRPGPEPRP | 0.662 |
| RRIRKRPPRLPRPRPRPVDGPRP | 0.344 |
| RRIRDRPPRLPRPRPRPEQRPRP | 0.0765 |
| RRIRYRPPRLPRPRPRPRTSPRP | -0.169 |

| Sequence | shrunken log2 fold change |
| --- | --- |
| RRIRMRPPRLPRPRPRPSLTPRP | 0.806 |
| RRIRLRPPRLPRPRPRPIMLPRP | -1.12 |
| RRIRWRPPRLPRPRPRPFVYPRP | -0.428 |
| RRIRNRPPRLPRPRPRPFQSPRP | -0.0983 |
| RRIRSRPPRLPRPRPRPHTSPRP | -0.445 |
| RRIRWRPPRLPRPRPRPGMKPRP | 0.0023 |
| RRIRCRPPRLPRPRPRPFTKPRP | -0.628 |
| RRIRFRPPRLPRPRPRPMVRPRP | 0.0406 |
| RRIRIRPPRLPRPRPRPNDWPRP | 0.0555 |
| RRIRGRPPRLPRPRPRPAEDPRP | 0.0402 |
| RRIRWRPPRLPRPRPRPQVWPRP | 0.576 |
| RRIRQRPPRLPRPRPRPPLKPRP | -0.0174 |
| RRIRNRPPRLPRPRPRPKHKPRP | -0.0428 |
| RRIRRRPPRLPRPRPRPGEPPRP | 0.41 |
| RRIRIRPPRLPRPRPRPIWMPRP | -0.176 |
| RRIRWRPPRLPRPRPRPVREPRP | 0.0727 |
| RRIRQRPPRLPRPRPRPGWGPRP | 0.957 |
| RRIRCRPPRLPRPRPRPNWTPRP | -0.0217 |
| RRIRLRPPRLPRPRPRPWCRPRP | 0.0427 |
| RRIRDRPPRLPRPRPRPCMTPRP | 0.33 |
| RRIRGRPPRLPRPRPRPSDAPRP | 0.264 |
| RRIRVRPPRLPRPRPRPQSGPRP | -0.0607 |
| RRIRWRPPRLPRPRPRPVQWPRP | 0.251 |
| RRIRLRPPRLPRPRPRPNKNPRP | -0.366 |
| RRIRMRPPRLPRPRPRPTNRPRP | 0.282 |
